Where “and” joins values, the source holds several entries; their conditions need not be identical. Equal values may be shown once.
Details: Enterobacteria phage T4, pH 7.4, Sodium Phosphate Buffer, whole UniProt chain shown; for denaturant midpoint (higher = more stable): 25 °C, Urea

B1: Sliding clamp wild type, P04525 (protein)
chain: MKLSKDTTALLKNFATINSGIMLKSGQFIMTRAVNGTTYAEANISDVIDFDVAIYDLNGFLGILSLVNDDAEISQSEDGNIKIADARSTIFWPAADPSTVVAPNKPIPFPVASAVTEIKAEDLQQLLRVSRGLQIDTIAITVKEGKIVINGFNKVEDSALTRVKYSLTLGDYDGENTFNFIINMANMKMQPGNYKLLLWAKGKQGAAKFEGEHANYVVALEADSTHDF
In the case of B1, the “denaturant midpoint (higher = more stable)” value (“denaturant midpoint” below) (CD, transition: 3, reversible: yes) is reported as 2.6 M and 5.7 M, the “denaturant midpoint” value (CD) is reported as 5.8 M and 2.5 M and the “denaturant midpoint” value (fluorescence, transition: 3, reversible: yes) is reported as 2.7 M and 5.7 M. The “denaturant midpoint” value (fluorescence) was 5.9 M, the Tm (Thermal, DSC, reversible: no) was 52.3 °C and the “unfolding enthalpy (calorimetric)” value (Thermal, DSC, reversible: no) was 350 kJ/mol. The “unfolding enthalpy (van 't Hoff)” value (Thermal, DSC, reversible: no) was 1080 kJ/mol.
